To fix the notation:
B1: human PA28α (natural protein)
chain: MAMLRVQPEAQAKVDVFREDLCTKTENLLGSYFPKKISELDAFLKEPALNEANLSNLKAPLDIPVPDPVKEKEKEERKKQQEKEDKDEKKKGEDEDKGPPCGPVNCNEKIVVLLQRLKPEIKDVIEQLNLVTTWLQLQIPRIEDGNNFGVAVQEKVFELMTSLHTKLEGFHTQISKYFSERGDAVTKAAKQPHVGDYRQLVHELDEAEYRDIRLMVMEIRNAYAVLYDIILKNFEKLKKPRGETKGMIY
notes: C-terminal residue printed as Y249; Stood in the experiments as a subunit of m1; also called PA28 α1, α2, α3, α4 (its copies in the heptamer); source: E. coli BL21 (DE3), co-expressed with PA28β, purified as the PA28αβ heteroheptamer
B4: human PA28β (natural protein)
chain: not shown
notes: C-terminal residue printed as Y239; Stood in the experiments as a subunit of m1; also called PA28 β1, β2, β3 (its copies in the heptamer); source: E. coli BL21 (DE3), co-expressed with PA28α, purified as the PA28αβ heteroheptamer
B5: bovine iCP subunit α4 (natural protein)
chain: not shown
notes: 20S proteasome subunit α4, bovine; Stood in the experiments as a subunit of m2; source: purified from bovine spleen as a subunit of the iCP

Conditions in all cases: both partners purified
For one assay, the target named is T1, bovine iCP subunit α3 (bovine, UniProt Q3ZCK9 1-261).
T1 construct: 20S proteasome subunit α3, bovine; Stood in the experiments as a subunit of m2; source: purified from bovine spleen as a subunit of the iCP
T1 sequence (Q3ZCK9 whole entry): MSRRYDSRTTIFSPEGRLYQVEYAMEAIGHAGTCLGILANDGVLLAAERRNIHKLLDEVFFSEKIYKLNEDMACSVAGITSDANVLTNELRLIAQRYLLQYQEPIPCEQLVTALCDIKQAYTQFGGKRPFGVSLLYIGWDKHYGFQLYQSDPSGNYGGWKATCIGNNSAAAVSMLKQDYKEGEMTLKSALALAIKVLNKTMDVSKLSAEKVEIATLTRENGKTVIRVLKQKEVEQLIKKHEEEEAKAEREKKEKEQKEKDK
Description: cryo-EM structure; PA28αβ and iCP mixed at a molar ratio of 10:1, 37 °C 30 min, cross-linked with 0.1% glutaraldehyde at 4 °C for 2 h, glycerol gradient; single-capped (4.1 Å) and double-capped (4.2 Å) complexes and free iCP (3.3 Å) from one data set.

The assay “human PA28β” has as its target B4. Described as above.
The target in the assay “human PA28α” is B1. The assay is described as above.
For the assay “bovine iCP subunit α4”, the target named is B5. Described as above.
Another assay has as its target T2, bovine iCP subunit α6 (bovine, UniProt Q3T0X5 1-263).
T2 construct: 20S proteasome subunit α6, bovine; Stood in the experiments as a subunit of m2; source: purified from bovine spleen as a subunit of the iCP
As to the kind of experiment: cross-linking; XL-MS: PA28αβ and iCP mixed 10:1, 37 °C 30 min, 0.25 mM BS3 on ice 2 h, glycerol gradient, trypsin digest, pLink2; E-value threshold 1.00E-02.

Chain of bovine iCP subunit α4 (Q3ZBG0 whole entry): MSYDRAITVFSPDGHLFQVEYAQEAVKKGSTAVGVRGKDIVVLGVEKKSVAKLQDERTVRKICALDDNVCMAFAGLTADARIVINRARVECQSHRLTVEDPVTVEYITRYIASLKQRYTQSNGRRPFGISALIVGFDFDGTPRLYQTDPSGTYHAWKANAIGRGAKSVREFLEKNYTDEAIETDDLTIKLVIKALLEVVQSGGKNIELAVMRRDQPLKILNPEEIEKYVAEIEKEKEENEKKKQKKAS
T2 sequence (Q3T0X5 whole entry): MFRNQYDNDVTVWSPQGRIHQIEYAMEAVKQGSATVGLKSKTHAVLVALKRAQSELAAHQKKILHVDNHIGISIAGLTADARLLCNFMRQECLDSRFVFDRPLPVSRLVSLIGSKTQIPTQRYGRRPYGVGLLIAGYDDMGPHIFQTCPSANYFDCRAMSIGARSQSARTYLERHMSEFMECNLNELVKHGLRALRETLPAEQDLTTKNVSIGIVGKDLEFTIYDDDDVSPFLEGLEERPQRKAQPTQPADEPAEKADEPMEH

B1: the binding result in the assay with bovine iCP subunit α3 was “binds”.

B2: bovine iCP subunit α2 (natural protein, UniProt Q3T0Y5 1-234, looked up)
chain: MAERGYSFSLTTFSPSGKLVQIEYALAAVAGGAPSVGIKAANGVVLATEKKQKSILYDERSVHKVEPITKHIGLVYSGMGPDYRVLVHRARKLAQQYYLVYQEPIPTAQLVQRVASVMQEYTQSGGVRPFGVSLLICGWNEGRPYLFQSDPSGAYFAWKATAMGKNYVNGKTFLEKRYNEDLELEDAIHTAILTLKESFEGQMTEDNIEVGICNEAGFRRLTPTEVKDYLAAIA
notes: 20S proteasome subunit α2, bovine; Stood in the experiments as a subunit of m2; source: purified from bovine spleen as a subunit of the iCP
In the case of B2, the binding result with human PA28β and in the assay with human PA28α was “binds” each time.

B3: bovine iCP subunit α5 (natural protein, UniProt Q5E987 1-241, looked up)
chain: MFLTRSEYDRGVNTFSPEGRLFQVEYAIEAIKLGSTAIGIQTSEGVCLAVEKRITSPLMEPSSIEKIVEIDAHIGCAMSGLIADAKTLIDKARVETQNHWFTYNETMTVESVTQAVSNLALQFGEEDADPGAMSRPFGVALLFGGVDEKGPQLFHMDPSGTFVQCDARAIGSASEGAQSSLQEVYHKSMTLKEAIKSSLIILKQVMEEKLNATNIELATVQPGQNFHMFTKEELEEVIKDI
notes: 20S proteasome subunit α5, bovine; Stood in the experiments as a subunit of m2; source: purified from bovine spleen as a subunit of the iCP
Consider B3, for which the binding result with human PA28α is on record as “binds”.
Consider B4, for which the binding result with bovine iCP subunit α4, with bovine iCP subunit α3 and with bovine iCP subunit α6 was “binds” throughout.
Regarding B5, the binding result in the assay with human PA28α is on record as “binds”.

The values are drawn from article PMC7854634, “Cryo-EM of mammalian PA28αβ-iCP immunoproteasome reveals a distinct mechanism of proteasome activation by PA28αβ” (Nature Communications, 2021).
